The source of these data is patent US8598081B2, “Specific delivery of agrochemicals” (priority 2010, dated 2013).

For data set [1], the system named is potato leaf discs. As to the kind of experiment: Leaf disc binding assay with VHH-coupled microcapsules, potato. Set-up: species or system potato (variety Desiree). Here is the method:
(§1) A leaf disc binding assay was used to evaluate the interaction of VHH-coupled microcapsules with potato, grass and azalea leaves. ø 8 mm leaf discs were sampled from the leaves of potato pot plants (variety Desiree), from the leaves of greenhouse-grown Lollium perenne and from the leaves of azalea pot plants. Leaf discs were washed three times with PBS. Microcapsules containing lambda cyhalothrin or Uvitex were diluted to appropriate densities in 1% skimmed milk in PBS with 0.05%-TWEEN®-20. Microcapsules were added to the leaf discs and settling of microcapsules and binding of targeting agents allowed for 1 hour. Unbound microcapsules were removed by washing three to five times with PBS with 0.05%-TWEEN®-20.
For lambda cyhalothrin microcapsules, a residue analysis was performed to measure lambda cyhalothrin amounts on potato leaf discs. Washed leaf discs with bound microcapsules were transferred to glass vials and microcapsules were dissolved in acetone. Samples were diluted by addition of hexane containing 0.05% triphenylphosphate as internal standard. The amount of lambda cyhalothrin was determined by GC/MS-MS analysis in comparison with calibration solutions. Controls for lambda cyhalothrin microcapsules included blank microcapsules to which no VHH were coupled and microcapsules to which unrelated VHH were coupled.
(§2) Leaf discs with Uvitex microcapsules were analyzed for bound microcapsules on a macrozoom microscope system (Nikon). Microcapsules were counted using Volocity image analysis software (Perkin Elmer). A DAPI filter was used to visualize Uvitex microcapsules. Controls for Uvitex microcapsules included blank microcapsules to which no VHH were coupled and microcapsules to which unrelated VHH were coupled.

For data set [2], the target named is T1, potato lectin (Solanum tuberosum, UniProt Q9S8M0).
T1 construct: purchased Sigma
T1 sequence (Q9S8M0 whole entry, looked up): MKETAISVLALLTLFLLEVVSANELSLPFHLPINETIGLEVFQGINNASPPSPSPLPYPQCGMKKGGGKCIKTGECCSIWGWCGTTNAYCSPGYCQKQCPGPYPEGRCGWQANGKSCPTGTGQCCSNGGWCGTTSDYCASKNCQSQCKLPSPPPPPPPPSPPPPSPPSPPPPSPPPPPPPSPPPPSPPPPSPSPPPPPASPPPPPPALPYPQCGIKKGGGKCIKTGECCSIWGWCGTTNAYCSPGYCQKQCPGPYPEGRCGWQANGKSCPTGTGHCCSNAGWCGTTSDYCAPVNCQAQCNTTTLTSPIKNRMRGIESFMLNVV
As to the kind of experiment: ELISA-like assay of VHH-coupled microcapsules, potato lectin-coated wells. Details: Area of bound microcapsules: unit not given beside the values. The settings on record: for Area of bound microcapsules: uvitex OB microcapsules. The format is binding. How it is done: Polyurea microcapsules were produced by interfacial polymerization. With the objective to generate functionalized polyurea microcapsules, VHH were coupled to microcapsules containing either the insecticide lambda cyhalothrin or the fluorescent tracer molecule Uvitex OB and a shell with incorporated lysine to surface-expose carboxylic acid residues. Lambda cyhalothrin was dissolved in benzyl benzoate in concentrations between 30% and 66% before encapsulation. Alternatively, a core of 1.5% Uvitex in benzyl benzoate was used for easy fluorescent visualization of microcapsules. Toluene diisocyanate (TDI) and polymethylenepolyphenylene isocyanate (PMPPI) were dissolved in the oil phase in different ratios and concentrations in the oil phase to produce desired shell characteristics. Stirring speed for the emulsion was varied to control droplet size and consequently microcapsule diameter. Microcapsules with approximate diameters of 5 μm, 10 μm, or 50 μm were successfully produced. Bifunctional lysine and trifunctional diethylene triamine (DETA) were used in different ratios and/or added sequentially during encapsulation to on the one hand maximize amounts of carboxylic acids on the microcapsules' surface and on the other hand obtain sufficient strength of capsule shells. Microcapsules were washed with water after production and stored as microcapsule suspensions in water. The microcapsules were washed with 100 mM MES, 500 mM NaCl, pH 6.0 immediately before coupling of VHH using a vacuum-tight filter flask and P 1.6 filter funnel (Duran). Alternatively, glass filter holders with 0.45 μm disposable membrane filters (Millipore) or 0.45 μm 96-well deep-well filtration plates (Millipore) were used. Couplings of VHH to microcapsules were performed using carbodiimide-mediated couplings using a one-step procedure, a two-step procedure without N-hydroxysuccinimide (NHS), or a two-step procedure with NHS. The major difference between one-step coupling and two-step coupling procedures is the occurrence of cross-linking of VHH in one-step coupling procedures. The protocols for the three procedures are largely similar and differ as follows. For one-step couplings VHH were added to washed microcapsules and 1-Ethyl-3-[3-dimethylaminopropyl]carbodiimide Hydrochloride (EDC) (Pierce) was added and coupling reaction was allowed for 2 hours at room temperature. For two-step couplings washed microcapsules were first activated with EDC in the presence or absence of NHS. Excess unreacted EDC (and NHS) were removed by quick sequential washes with ice-cold buffers and VHH were added and allowed to react with activated carboxylic acids on microcapsule shells. For ø 10 μm microcapsules 2-20 μg VHH were coupled per mg microcapsules. For microcapsules with other diameters amounts were scaled accordingly. After coupling of VHH the microcapsules were washed with PBS and stored in PBS. Success of coupling of VHH was investigated using a combination of analyzing coupling efficiency by SDS-PAGE and analyzing bound hexahistidine-tagged VHH by microscopy or a SP5 confocal microscope system (Leica) using anti-histidine antibodies directly conjugated with Alexa-488 fluorescent dye. […] VHH-coupled microcapsules were labeled with anti-histidine antibodies for 1 hour at room temperature. Unbound anti-histidine antibodies were removed by washing five times with PBS using 0.45 μm 96-well deep-well filtration plates (Millipore). […]
A general note: In an ELISA, binding on a coated surface is turned into a signal by an enzyme label.

For data set [3], the system named is potato leaf discs. In words: VHH binding at different pH, leaf dip experiment. The following applies: whole range tested from pH 2 to pH 11; 5 μg/ml; 1 hour. Details: species or system potato (variety Desiree). How it is done:
In order to test applicability of VHH as binders for greenhouse or field applications where binding supposedly may occur at pH-values, deviating strongly from physiological conditions in which antibodies naturally bind their targets, a leaf dip VHH binding experiment was carried out in a series of solutions with different pH. The following solutions were prepared: 50 mM glycine pH 2.0, 50 mM sodium acetate pH 4.0, 50 mm sodium carbonate pH 9.6, and 10 mM sodium hydroxide pH […] 8 mm potato leaf discs (variety Desiree) were cut using a puncher tool. The leaf discs were first equilibrated to the different pH by washing three times with solutions at different pH. Hexahistidine-tagged VHH were diluted to 5 μg/ml in solutions with different pH, added to the corresponding equilibrated leaf discs, and binding of VHH was allowed for 1 hour. After incubation with VHH, leaf discs were washed three times with solutions at the corresponding different pH. After that, all were washed two times with PBS to equilibrate leaf discs to PBS. Bound VHH were detected by incubation with monoclonal mouse anti-histidine antibodies directly conjugated with Alexa-488 fluorescent dye (Abd Serotec) in PBS for 1 hour. Unbound anti-histidine antibodies were removed by washing five times with PBS. Leaf discs were analyzed for bound VHH with microscopy.

Data set [4] deals with azalea leaf discs. As to the kind of experiment: Leaf disc binding assay with VHH-coupled microcapsules, azalea. The settings on record: Uvitex microcapsules. How it is done: as §1, §2
Where [5] appears, read: potato leaf discs, Uvitex microcapsules, FIG. 4.

B1: VHH 3E6: VHH binding gum arabic, potato lectin and leaf surface; SEQ ID NO:7 by order of the list (protein, listed as Lama glama)
VHH: QVQLQESGGGLVQPGGTLSLSCAASGFNVRWYGMGWFRQAPGKEREGVACISALQETTAYADSVKGRFTLSRDNPKNTLSLQMNNLQPEDTGVYYCATTDCDDSSRMTYTSYLGQGTQVTVSS
modifications: 3E6
With B1, the “binding and retaining microcapsules to leaf surfaces” value in data set [1] (VHH coupled to Uvitex microcapsules, leaf disc binding assay) was “capable of binding and retaining microcapsules specifically to leaf surfaces”. Besides, the “binding and retaining microcapsules to antigen-coated surface when VHH is coupled to a microcapsule” value in data set [2] (microcapsule binding assays, resists washing shear forces) is on record as “capable of binding specifically to antigen-coated surfaces”. For the same molecule, in data set [3], the “binding to leaf discs at different pH” value was “detectable binding”.

B2: Microcapsules containing uvitex OB VHH 3E6: polyurea microcapsules containing the fluorescent tracer Uvitex OB, coupled with (monovalent) VHH 3E6 (conjugate)
VHH: B1 VHH
modifications: left off: small tags and cut ends
notes: polyurea microcapsules containing the fluorescent tracer Uvitex OB, coupled with (monovalent) VHH 3E6
Take B2: the “more microcapsules bound to leaf surfaces compared to blank microcapsules” value in data set [1] (setting [5]) is given as “nine-fold”. Besides, the “more microcapsules bound to leaf surfaces compared to microcapsules coupled with unrelated VHH” value in data set [1] (setting [5]) is reported as “six-fold”. For the same molecule, the “Area of bound microcapsules” value in data set [2] (no coating (first series, with potato lectin rows), surface coverage 100%) is given as 86.574; in data set [2] (potato lectin, surface coverage 4%), 144.955; in data set [2] (potato lectin, surface coverage 20%), 510.242; in data set [2] (potato lectin, surface coverage 100%), 504.839. For the same molecule, the “specific binding of microcapsules to azalea leaf discs” value in data set [4] was “no specific binding”.
